The text below walks through data of paper PMC8897147 (Acta Pharmaceutica Sinica. B, 2021).

What all share (assay): FRET or BRET
(In general: In BRET a luciferase serves as donor, and the signal depends on an acceptor being close.)

For one assay, the target named is glucagon receptor-Rluc8 (UniProt P47871 26-477).
The target of assay [1] is T1, glucagon-like peptide-2 receptor-Rluc8 (UniProt O95838 1-553).
T1 sequence: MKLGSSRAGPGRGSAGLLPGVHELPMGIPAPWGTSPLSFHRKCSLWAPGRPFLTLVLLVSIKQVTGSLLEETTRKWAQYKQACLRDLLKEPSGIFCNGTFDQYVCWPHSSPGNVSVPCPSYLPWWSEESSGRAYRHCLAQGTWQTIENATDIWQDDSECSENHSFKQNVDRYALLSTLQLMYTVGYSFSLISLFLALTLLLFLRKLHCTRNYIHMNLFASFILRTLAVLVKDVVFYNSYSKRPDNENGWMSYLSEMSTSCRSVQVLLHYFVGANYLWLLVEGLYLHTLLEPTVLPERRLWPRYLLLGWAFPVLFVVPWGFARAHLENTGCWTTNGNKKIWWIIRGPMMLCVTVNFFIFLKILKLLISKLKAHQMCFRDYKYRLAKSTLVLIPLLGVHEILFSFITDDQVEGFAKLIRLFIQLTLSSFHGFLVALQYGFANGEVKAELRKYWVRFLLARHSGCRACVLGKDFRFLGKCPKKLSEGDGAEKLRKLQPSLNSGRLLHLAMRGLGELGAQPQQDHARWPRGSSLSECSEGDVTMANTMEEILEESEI

Assay [2] concerns the target T2, gastric inhibitory polypeptide receptor-Rluc8 (UniProt P48546 22-466).
T2 sequence: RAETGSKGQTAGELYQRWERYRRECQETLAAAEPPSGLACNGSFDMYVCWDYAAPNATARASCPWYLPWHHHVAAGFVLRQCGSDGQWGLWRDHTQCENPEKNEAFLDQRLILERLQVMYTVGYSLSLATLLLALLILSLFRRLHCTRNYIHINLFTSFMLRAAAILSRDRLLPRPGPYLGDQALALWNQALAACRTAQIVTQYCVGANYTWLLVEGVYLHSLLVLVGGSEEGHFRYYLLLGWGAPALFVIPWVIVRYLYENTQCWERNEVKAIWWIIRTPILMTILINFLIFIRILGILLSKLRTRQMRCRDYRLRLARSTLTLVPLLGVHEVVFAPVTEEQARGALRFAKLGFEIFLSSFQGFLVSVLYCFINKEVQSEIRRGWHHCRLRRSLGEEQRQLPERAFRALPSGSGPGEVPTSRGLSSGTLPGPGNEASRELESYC

Assay [3] concerns the target calcitonin-like receptor-Rluc8 (human, UniProt Q16602 23-461).
Assay [4] addresses T3, growth hormone-releasing hormone receptor-Rluc8 (UniProt Q02643 23-423).
T3 sequence: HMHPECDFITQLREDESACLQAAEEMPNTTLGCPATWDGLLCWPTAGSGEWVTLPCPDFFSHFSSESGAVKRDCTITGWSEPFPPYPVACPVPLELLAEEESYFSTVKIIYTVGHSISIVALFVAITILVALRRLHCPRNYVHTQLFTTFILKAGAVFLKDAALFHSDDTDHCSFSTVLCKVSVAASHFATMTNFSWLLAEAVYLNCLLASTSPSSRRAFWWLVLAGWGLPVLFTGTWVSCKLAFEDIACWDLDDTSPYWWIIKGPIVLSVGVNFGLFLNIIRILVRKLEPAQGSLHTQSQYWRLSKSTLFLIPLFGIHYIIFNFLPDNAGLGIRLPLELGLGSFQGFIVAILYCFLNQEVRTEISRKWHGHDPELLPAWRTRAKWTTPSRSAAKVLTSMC

Assay [5] concerns the target glucagon-like peptide-1 receptor-Rluc8 (UniProt P43220 24-463).
The next assay addresses secretin receptor-Rluc8 (UniProt P47872 23-440).

Sequence of calcitonin-like receptor-Rluc8 (Q16602 23-461): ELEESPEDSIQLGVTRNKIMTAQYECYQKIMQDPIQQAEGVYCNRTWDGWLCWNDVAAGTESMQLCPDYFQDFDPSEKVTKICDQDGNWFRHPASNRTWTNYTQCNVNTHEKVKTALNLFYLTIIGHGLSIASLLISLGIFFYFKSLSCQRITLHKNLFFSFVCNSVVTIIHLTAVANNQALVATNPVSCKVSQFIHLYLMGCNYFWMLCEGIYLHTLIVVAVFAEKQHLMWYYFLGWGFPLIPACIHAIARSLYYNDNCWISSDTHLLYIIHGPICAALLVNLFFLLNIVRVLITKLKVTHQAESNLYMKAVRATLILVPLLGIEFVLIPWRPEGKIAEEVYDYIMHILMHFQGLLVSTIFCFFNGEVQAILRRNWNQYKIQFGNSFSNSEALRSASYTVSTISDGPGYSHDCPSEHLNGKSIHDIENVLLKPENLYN
Sequence of glucagon receptor-Rluc8 (P47871 26-477): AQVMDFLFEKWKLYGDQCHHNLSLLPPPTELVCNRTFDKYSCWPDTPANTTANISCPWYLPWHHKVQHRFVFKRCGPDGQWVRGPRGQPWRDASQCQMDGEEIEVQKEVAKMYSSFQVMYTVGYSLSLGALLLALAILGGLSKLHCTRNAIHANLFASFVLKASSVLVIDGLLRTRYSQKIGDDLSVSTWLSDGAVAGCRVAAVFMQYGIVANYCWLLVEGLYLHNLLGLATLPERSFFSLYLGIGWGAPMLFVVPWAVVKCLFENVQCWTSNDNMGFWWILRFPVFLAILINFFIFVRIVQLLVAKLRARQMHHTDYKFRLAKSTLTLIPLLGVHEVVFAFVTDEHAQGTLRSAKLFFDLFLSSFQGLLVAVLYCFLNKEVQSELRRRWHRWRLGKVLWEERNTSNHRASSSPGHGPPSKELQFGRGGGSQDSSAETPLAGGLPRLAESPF
Sequence of secretin receptor-Rluc8 (P47872 23-440): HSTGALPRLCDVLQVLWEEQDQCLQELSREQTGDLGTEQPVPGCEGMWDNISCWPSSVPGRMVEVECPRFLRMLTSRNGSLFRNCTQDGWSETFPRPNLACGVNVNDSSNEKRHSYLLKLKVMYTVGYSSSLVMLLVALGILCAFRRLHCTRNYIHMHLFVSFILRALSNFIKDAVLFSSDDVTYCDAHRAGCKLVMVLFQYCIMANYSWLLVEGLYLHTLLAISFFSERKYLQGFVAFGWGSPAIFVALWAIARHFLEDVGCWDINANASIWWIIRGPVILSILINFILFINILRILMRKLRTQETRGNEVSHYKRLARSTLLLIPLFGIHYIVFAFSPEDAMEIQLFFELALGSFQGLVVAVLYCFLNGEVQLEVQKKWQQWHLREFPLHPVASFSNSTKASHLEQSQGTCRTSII

B1: RAMP2-Ypet (receptor activity-modulating protein 2) (natural protein)
chain: QPLPTTGTPGSEGGTVKNYETAVQFCWNHYKDQMDPIEKDWCDWAMISRPYSTLRDCLEHFAELFDLGFPNPLAERIIFETHQIHFANCSLVQPTFSDPPEDVLLAMIIAPICLIPFLITLVVWRSKDSEAQA
For the molecule B1, the “BRET50 (Kd)” value is 1.65 intensity ratio of RAMP:receptor with glucagon receptor-Rluc8; 7.45 intensity ratio of RAMP:receptor in assay [1]; 2.75 intensity ratio of RAMP:receptor in assay [2]; 0.114 intensity ratio of RAMP:receptor in assay [3]; 0.893 intensity ratio of RAMP:receptor in assay [4].

B2: RAMP1-Ypet (receptor activity-modulating protein 1) (natural protein)
chain: CQEANYGALLRELCLTQFQVDMEAVGETLWCDWGRTIRSYRELADCTWHMAEKLGCFWPNAEVDRFFLAVHGRYFRSCPISGRAVRDPPGSILYPFIVVPITVTLLVTALVVWQSKRTEGIV
On to B2, for which the “BRET50 (Kd)” value was 1.55 intensity ratio of RAMP:receptor with glucagon receptor-Rluc8, 4.6 intensity ratio of RAMP:receptor in assay [2] and 0.077 intensity ratio of RAMP:receptor in assay [3].

B3: RAMP3-Ypet (receptor activity-modulating protein 3) (natural protein)
chain: RAGGCNETGMLERLPLCGKAFADMMGKVDVWKWCNLSEFIVYYESFTNCTEMEANVVGCYWPNPLAQGFITGIHRQFFSNCTVDRVHLEDPPDEVLIPLIVIPVVLTVAMAGLVVWRSKRTDTLL
Take B3: the “BRET50 (Kd)” value is 2.34 intensity ratio of RAMP:receptor with glucagon receptor-Rluc8; 1.66 intensity ratio of RAMP:receptor in assay [1]; 0.352 intensity ratio of RAMP:receptor in assay [2]; 1 intensity ratio of RAMP:receptor in assay [5]; 0.087 intensity ratio of RAMP:receptor in assay [3]; 2.09 intensity ratio of RAMP:receptor in assay [4]. Besides, in the assay with secretin receptor-Rluc8, the “BRET50 (Kd)” value is 1.63 intensity ratio of RAMP:receptor.
